Measured values reported in the supplement of paper PMC10724198.
± gives the standard deviation of the averaged measurements.

Tested on: Saccharomyces cerevisiae
Experiment: protein stability index of tFT-peptide fusion (C-terminal peptide) (PSI (0-1 scale)); higher = more stable (slower turnover)
Conditions: genetic background: wild type; temperature: 30 C
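Further: PSI is a weighted mean of sequencing reads over stability bins, variants kept only with over 10 reads, mCherry proximal and sfGFP distal, peptide attached via GGGS linker.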

Row | Sequence | protein stability index
1 | PFVSHLDRWDIR | 0.712 ± 0.041
2 | PFYTKSASPSSR | 0.669 ± 0.02
3 | PGAHPVTLTIRL | 0.647 ± 0.027
4 | PGHRVLKILHLR | 0.551 ± 0.055
5 | PGITRKTKKEKK | 0.701 ± 0.041
6 | PGLGISHARCCF | 0.695 ± 0.016
7 | PGLPFAPLPPPL | 0.733 ± 0.014
8 | PGPPPPPPPLYP | 0.6947 ± 0.0063
9 | PGPPSPPPPLYP | 0.6783 ± 0.0056
10 | PGQRSRGPPGRA | 0.737 ± 0.076
11 | PGQSSPLPPDVS | 0.653 ± 0.078
12 | PGRSATSCPFLG | 0.671 ± 0.019
13 | PGSCGATTRCLH | 0.481 ± 0.075
14 | PGWPISNLGHAL | 0.634 ± 0.077
15 | PHFLLLEDRPQT | 0.705 ± 0.02
16 | PHGPPAHLRSRP | 0.737 ± 0.015
17 | PHHPPAHPPTPP | 0.683 ± 0.023
18 | PHHPPPPLPCVV | 0.632 ± 0.071
19 | PHHRRVVRPPTA | 0.704 ± 0.013
20 | PHNTPRPELLPP | 0.613 ± 0.11
21 | PHPAPPPNPLVP | 0.739 ± 0.017
22 | PHPCSPAPPWPL | 0.694 ± 0.028
23 | PHPHRPPRSFLL | 0.704 ± 0.1
24 | PHPLPSHPLPPP | 0.738 ± 0.023
25 | PHPLSPRPPPSL | 0.746 ± 0.013
26 | PHPPFLFPPPCP | 0.71 ± 0.051

Row | Sequence | protein stability index
27 | PHPPLPPLLPPA | 0.741 ± 0.082
28 | PHPPLPPPPYLL | 0.667 ± 0.016
29 | PHPPPSLLPSAP | 0.7612 ± 0.0037
30 | PHPTPSLPHSSP | 0.827 ± 0.043
31 | PHQCLSFPPRFK | 0.744 ± 0.082
32 | PHSASSVSYTLY | 0.701 ± 0.052
33 | PHSPSHTPVYPR | 0.694 ± 0.011
34 | PHSPSPSWFWPR | 0.76 ± 0.058
35 | PHSSFSLAPPIP | 0.696 ± 0.01
36 | PHTLPPLPVSPT | 0.67 ± 0.05
37 | PHVLAALTSYTP | 0.68783 ± 0.00064
38 | PHVSGYTVLIWF | 0.5588 ± 0.0054
39 | PICAWGRPRTPM | 0.7639 ± 0.0017
40 | PIDHCFPPIPRR | 0.737 ± 0.035
41 | PILPTSAPSDPR | 0.724 ± 0.12
42 | PIPHHLRVASPA | 0.6162 ± 0.00068
43 | PISPPLPRPSPR | 0.696 ± 0.012
44 | PIVSISLGIGSS | 0.6758 ± 0.001
45 | PKAMRPKLVVFR | 0.682 ± 0.024
46 | PKHQPSLLPNHH | 0.615 ± 0.026
47 | PKKREKKKKKEK | 0.66 ± 0.073
48 | PKSTDVPPVRRE | 0.686 ± 0.088
49 | PKVRQLLLTRVL | 0.547 ± 0.022
50 | PKYYTTTDRLRV | 0.622 ± 0.02
51 | PLAALPLALSLP | 0.6575 ± 0.0055
52 | PLALPLHLPLPP | 0.667 ± 0.034

Row | Sequence | protein stability index
53 | PLALSPNPLSRT | 0.679 ± 0.045
54 | PLAPPHRPALLM | 0.568 ± 0.034
55 | PLCLLLLNPPTL | 0.682 ± 0.012
56 | PLCVPPRRLFPP | 0.716 ± 0.072
57 | PLFFLPLPPPLF | 0.6881 ± 0.0046
58 | PLFLLLPALSIP | 0.595 ± 0.029
59 | PLFRTPPPRPSP | 0.673 ± 0.14
60 | PLFSFLPPPLPP | 0.697 ± 0.017
61 | PLGPLLSPLSPP | 0.743 ± 0.014
62 | PLGPRFLPLVLP | 0.682 ± 0.021
63 | PLGVPPPAPSSP | 0.6943 ± 0.0024
64 | PLHPPPPPPPPT | 0.69 ± 0.034
65 | PLLHPPPRASLL | 0.792 ± 0.13
66 | PLLLPLFSSSPP | 0.777 ± 0.085
67 | PLLLYFLPPLPL | 0.629 ± 0.039
68 | PLLPYPFPPPLS | 0.784 ± 0.04
69 | PLLTFSPLPGLS | 0.696 ± 0.034
70 | PLLTPPPVLHHP | 0.741 ± 0.035
71 | PLLVLSLRLSPP | 0.664 ± 0.013
72 | PLPALRPGAAPH | 0.7457 ± 0.0023
73 | PLPAPPSTPSSP | 0.715 ± 0.034
74 | PLPAPPTPPLPP | 0.763 ± 0.039
75 | PLPARFPPSPPS | 0.743 ± 0.074
76 | PLPFLPPPPCPP | 0.696 ± 0.036
77 | PLPFPFPLCSQS | 0.64 ± 0.1
78 | PLPFPPPPPSPY | 0.655 ± 0.086

Row | Sequence | protein stability index
79 | PLPLPSTALPPS | 0.632 ± 0.063
80 | PLPPISSFPSLS | 0.703 ± 0.028
81 | PLPPLFLPPPPL | 0.708 ± 0.021
82 | PLPPLLLPPPLP | 0.703 ± 0.046
83 | PLPPPLPQAPPT | 0.695 ± 0.021
84 | PLPPPPAPPLPP | 0.647 ± 0.024
85 | PLPPPPLLPFVL | 0.774 ± 0.085
86 | PLPPPPTPPVPV | 0.672 ± 0.015
87 | PLPPRPSPPPPL | 0.705 ± 0.013
88 | PLPPSSSPSSLP | 0.71 ± 0.077
89 | PLPPTAPPHPPP | 0.671 ± 0.096
90 | PLPQVLYPPPPS | 0.6905 ± 0.0045
91 | PLPRLRRPAPPH | 0.667 ± 0.055
92 | PLPRPPPPSCPP | 0.654 ± 0.076
93 | PLPRPPPTATGD | 0.687 ± 0.013
94 | PLPRSPRPSAPP | 0.622 ± 0.034
95 | PLPSAPLLPPPP | 0.686 ± 0.056
96 | PLPVLLLPGHLP | 0.733 ± 0.054
97 | PLPYSPPHPVPP | 0.701 ± 0.029
98 | PLRDHPAPPHRL | 0.665 ± 0.068
99 | PLRESSTRPSLL | 0.684 ± 0.055
100 | PLRLPPAPPFPL | 0.824 ± 0.075
101 | PLRLPPAPPPPP | 0.617 ± 0.015
102 | PLRPAPVLYPAF | 0.654 ± 0.012
103 | PLRPPRPPPPPF | 0.726 ± 0.052
104 | PLRRRPFAPPPP | 0.535 ± 0.034

Row | Sequence | protein stability index
105 | PLSFHPHLTSSP | 0.671 ± 0.013
106 | PLSLSPLPSPPL | 0.704 ± 0.041
107 | PLSPPAPSPAPR | 0.644 ± 0.0071
108 | PLSPPLPPPLSL | 0.681 ± 0.031
109 | PLSPPPPPRPPL | 0.728 ± 0.019
110 | PLSPPPSLPVPL | 0.659 ± 0.051
111 | PLSPRLPRRRLP | 0.681 ± 0.017
112 | PLSSLSLPTPPT | 0.707 ± 0.062
113 | PLSTHNSLPRVK | 0.691 ± 0.061
114 | PLSVSLSLLTPR | 0.74 ± 0.13
115 | PLTNKTHRPPDK | 0.702 ± 0.0091
116 | PLVPSPSPPPAR | 0.727 ± 0.031
117 | PLWRVPPYPPSP | 0.691 ± 0.031
118 | PLWVFFRFSPNL | 0.662 ± 0.01
119 | PMNCIGTRGHQV | 0.65854 ± 0.00043
120 | PMPPPPPACSLD | 0.777 ± 0.11
121 | PNAPSLSPPSLF | 0.624 ± 0.066
122 | PNASPNPHRSNK | 0.708 ± 0.062
123 | PNESFLLPELNH | 0.711 ± 0.0083
124 | PNETQTQRPATR | 0.683 ± 0.025
125 | PNPPHPPPLPPA | 0.595 ± 0.033
126 | PNPRSPRPSPPS | 0.687 ± 0.038
127 | PPAFPPPPSPPP | 0.636 ± 0.091
128 | PPAHPRPPPPFL | 0.762 ± 0.037
129 | PPAPLHLPSLPR | 0.705 ± 0.018
130 | PPAPPHLPPLPR | 0.71574 ± 0.00046

Row | Sequence | protein stability index
131 | PPAPPLPAPPWA | 0.54 ± 0.032
132 | PPAPPPLPPPPP | 0.729 ± 0.0092
133 | PPAPPPPTGLCL | 0.755 ± 0.092
134 | PPAPRPPLFPYP | 0.697 ± 0.043
135 | PPAPRPPSPRPP | 0.693 ± 0.033
136 | PPARIFRSLPTP | 0.711 ± 0.047
137 | PPASLRRLLPPP | 0.654 ± 0.0066
138 | PPASPPLPPPRP | 0.689 ± 0.042
139 | PPATTSATRVRP | 0.698 ± 0.043
140 | PPAVRRPRRGGN | 0.699 ± 0.016
141 | PPCGPPGPPIPP | 0.592 ± 0.026
142 | PPCLPPASRPVL | 0.699 ± 0.0069
143 | PPDPPPYAPPPP | 0.648 ± 0.015
144 | PPDPPWPRSPPA | 0.588 ± 0.019
145 | PPFLPLPPPPLP | 0.731 ± 0.015
146 | PPFLSAFPPHLP | 0.724 ± 0.015
147 | PPFPPPPRPPSS | 0.645 ± 0.036
148 | PPFTRLPPPLSS | 0.741 ± 0.062
149 | PPGPPRPFPSHL | 0.785 ± 0.16
150 | PPHFPLPLPPTP | 0.706 ± 0.024
151 | PPHPARHRPPAS | 0.7321 ± 0.0016
152 | PPHPPRPPSPHP | 0.707 ± 0.051
153 | PPHPSPPPPSHS | 0.693 ± 0.039
154 | PPICLCHDPAAH | 0.659 ± 0.013
155 | PPLAPPPPPRPP | 0.6 ± 0.072
156 | PPLASSPPVLAR | 0.514 ± 0.018

Row | Sequence | protein stability index
157 | PPLCPPLPFLHP | 0.885 ± 0.11
158 | PPLDLPFPSRSI | 0.745 ± 0.0078
159 | PPLFPPPTLPEL | 0.738 ± 0.02
160 | PPLGPRPPSNST | 0.6522 ± 0.0058
161 | PPLKPRTSRPTI | 0.682 ± 0.009
162 | PPLLPLPPPPSP | 0.625 ± 0.067
163 | PPLLPLSQPLPH | 0.683 ± 0.038
164 | PPLLPPAPLFPP | 0.694 ± 0.025
165 | PPLPAPPAPAVQ | 0.6991 ± 0.0027
166 | PPLPFAISPPPA | 0.6624 ± 0.0017
167 | PPLPHPPLLAPP | 0.748 ± 0.15
168 | PPLPLPPPIRPP | 0.6388 ± 0.0037
169 | PPLPNLVYHLST | 0.6195 ± 0.0054
170 | PPLPPHPPPGQQ | 0.697 ± 0.017
171 | PPLPPLPLSLSI | 0.742 ± 0.093
172 | PPLPPLPPLPPP | 0.72 ± 0.08
173 | PPLPPPPPRLPA | 0.636 ± 0.025
174 | PPLPPQLVQDLL | 0.72 ± 0.073
175 | PPLPPRPAPIPP | 0.663 ± 0.033
176 | PPLPPRPQTHLH | 0.728 ± 0.074
177 | PPLPPSPPAPPP | 0.629 ± 0.0019
178 | PPLPPSSPPPSS | 0.6605 ± 0.0028
179 | PPLPPTLSSIVI | 0.599 ± 0.021
180 | PPLPRPHHPYRR | 0.708 ± 0.025
181 | PPLRPPRPHQHS | 0.636 ± 0.039
182 | PPLSVLPFRFIL | 0.575 ± 0.048

Row | Sequence | protein stability index
183 | PPLTHASPLHLI | 0.585 ± 0.021
184 | PPLTRRSTLMSY | 0.591 ± 0.042
185 | PPLVPPTPAFPP | 0.623 ± 0.028
186 | PPNLLPPLSPSL | 0.678 ± 0.08
187 | PPPAAPPSSPLL | 0.765 ± 0.071
188 | PPPAPLPPRSSS | 0.638 ± 0.086
189 | PPPAPPLTFGHV | 0.6852 ± 0.0031
190 | PPPAPRPPASPP | 0.69815 ± 0.00052
191 | PPPAPRTPPLLP | 0.736 ± 0.029
192 | PPPDPPRHGRPE | 0.684 ± 0.035
193 | PPPDRLPPAHLP | 0.721 ± 0.029
194 | PPPFLPLCFPPL | 0.691 ± 0.032
195 | PPPFPPPPLFPL | 0.714 ± 0.032
196 | PPPGPPAVANRL | 0.701 ± 0.072
197 | PPPGPSPPPSPH | 0.683 ± 0.074
198 | PPPGPSRRPAAL | 0.726 ± 0.017
199 | PPPHPHPFSLAL | 0.691 ± 0.017
200 | PPPHPLALPPPP | 0.74 ± 0.03
201 | PPPHPPPPLPPP | 0.617 ± 0.01
202 | PPPHPPPPPLPS | 0.635 ± 0.021
